Measurements taken from article PMC3875777, “Aberrantly hypermethylated Homeobox A2 derepresses metalloproteinase-9 through TBP and promotes invasion in Nasopharyngeal carcinoma”.

Tests used:
recombinant His-HOXA2 = recombinant His-HOXA2 (UniProt O43364 1-376); assay: EMSA; supershifted by antibody; Pull-down: 100-250 pmole probe on M-280 streptavidin Dynabeads, 100-250 ug nuclear extract, 2.5 ug salmon sperm DNA, 1 h room temperature, washes with 0.5% NP-40; EMSA: LightShift kit, 20 fmol probe, 37 C 20 min, 6% gel in 1X TBE; salt and pH not given; settings: protein: recombinant; tags: His; label: 5'-biotin; blunt
Sequence of recombinant His-HOXA2 (O43364 whole entry): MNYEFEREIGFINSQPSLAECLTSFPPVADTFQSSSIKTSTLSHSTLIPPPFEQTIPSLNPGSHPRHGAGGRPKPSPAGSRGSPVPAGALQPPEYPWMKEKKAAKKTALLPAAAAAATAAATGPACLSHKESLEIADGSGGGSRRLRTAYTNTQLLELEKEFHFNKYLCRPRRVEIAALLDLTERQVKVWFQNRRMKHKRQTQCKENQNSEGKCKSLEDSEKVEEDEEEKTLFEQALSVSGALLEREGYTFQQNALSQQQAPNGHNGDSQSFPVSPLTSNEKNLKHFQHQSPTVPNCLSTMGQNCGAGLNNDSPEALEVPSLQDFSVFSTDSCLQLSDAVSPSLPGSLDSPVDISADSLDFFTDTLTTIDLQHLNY

recombinant His-TBP = recombinant His-TBP (UniProt P20226 1-339); assay: as above; settings: protein: recombinant; tags: His; label: 5'-biotin; blunt
Sequence of recombinant His-TBP (P20226 whole entry): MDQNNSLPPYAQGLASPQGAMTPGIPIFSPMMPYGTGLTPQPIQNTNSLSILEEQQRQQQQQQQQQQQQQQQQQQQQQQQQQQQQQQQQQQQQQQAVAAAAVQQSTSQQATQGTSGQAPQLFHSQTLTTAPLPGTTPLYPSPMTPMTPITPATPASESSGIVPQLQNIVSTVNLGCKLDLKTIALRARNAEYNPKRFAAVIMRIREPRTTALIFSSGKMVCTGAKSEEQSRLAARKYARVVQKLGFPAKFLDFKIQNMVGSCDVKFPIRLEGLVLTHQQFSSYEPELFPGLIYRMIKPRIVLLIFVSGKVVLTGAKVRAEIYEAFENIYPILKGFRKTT

B1: MMP9 TATA WT (dsDNA)
DNA 1: GAGCGCCTCCTTAAAGCCCCCACAA
DNA 2: TTGTGGGGGCTTTAAGGAGGCGCTC
binding result (recombinant His-HOXA2): binds
binding result (recombinant His-TBP): binds
